In assay [1] the target is T1, Her2/neu receptor expressed on cells (T6-17 cells; SKBR3 cells) (UniProt P04626 23-1255).
T1 construct: whole, on cells; also called p185 HER2/neu
The assay is described as follows: FACS on T6-17 cells, 45 min on ice, rabbit anti-His antibody and FITC anti-rabbit antibody. The protocol:
Experiments were conducted to determine whether the ALZ construct (SEQ ID NO. 5) could bind to T6-17 cells, which express the Her2/neu receptor. T6-17 cells were incubated with (dark line) or without (light line) ALZ for 45 min on ice and then with a rabbit anti-His antibody followed by a FITC-labeled anti-rabbit antibody. Other antigen-binding proteins were tested in this manner also.

Another assay concerns the target T2, FcγIIIB Fc receptor (UniProt O75015 17-200).
T2 construct: The form used in the Biacore experiments is not described; also called FcγIIIB receptor
Kind of assay: Biacore. The protocol:
In some cases, antigen-binding protein can interact with an Fc receptor, which may facilitate cell-mediated cytotoxicity. Biacore experiments were conducted to determine whether the antigen-binding protein AHNP-CH2-mimic could bind to the FcγIIIB Fc receptor. […] The interaction between AFc, an antigen binding protein consisting of AHNP linked to the Fc region of an IgG1 antibody, and FcγIIIB was examined for comparative purposes. […] Since FcγIIIB is known to have low affinity to IgG1, the level of affinity observed for AHNP-CH2-mimic is very encouraging. Furthermore, a synthetic CH2-mimic peptide was also observed to compete with the monoclonal antibody 4D5 (IgG1) for binding to the FcγIIIB receptor when analyzed in Biacore experiments. Despite the observed competition for FcγIIIB, direct binding between the CH2-mimic peptide alone and FcγIIIB was not detected, possibly due to the inability for the interaction to be detected by Biacore.
(SPR reads the build-up and loss of mass on a sensor chip optically.)

T2 sequence (O75015 17-200): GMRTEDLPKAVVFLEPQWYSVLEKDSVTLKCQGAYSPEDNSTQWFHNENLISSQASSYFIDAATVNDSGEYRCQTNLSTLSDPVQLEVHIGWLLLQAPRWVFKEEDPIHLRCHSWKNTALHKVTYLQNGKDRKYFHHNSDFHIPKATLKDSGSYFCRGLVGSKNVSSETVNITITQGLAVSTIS

B1: ALZ (designed binder)
chain: MAFCDGFYACYMDVGGGGGSMASDFLKHCQADHLLDEKGRAQCLLQREMVQSLEQQLVLEKEKLSAMQAHLAGKMALTKASSVASSDKLEHHHHHH
notes: AHNP on the N-terminus of the leucine zipper domain of human FOXP3, with a His-tag; The LZ domain is said to form dimers and tetramers; also called ALZ construct
As for B1, the binding result in assay [1] is given as “binds”. For FPAPLAPGGLYLGG [synthetic CH2-mimic peptide], the binding result with FcγIIIB Fc receptor was “no binding”.

The values are drawn from US20120164066A1 (University of Pennsylvania, published 2012).
